Assay results reported in patent US20170252417A1 (MIT, published 2017).

Target: mouse serum albumin (MSA) (mouse, UniProt P07724 25-608)
Assay: yeast surface display library on rcSso7d scaffold, selection for MSA binders

Binder | binding result
M18.2.5 (designed binder, Isolated from a yeast surface display library built on the rcSso7d scaffold; In the vaccines it was fused at its C-terminus to GGGS-His tag-GGGS-E7 long) ATVKFTYRGEEKQVDISKIKWVVRLGQVIMFKYDEGGGASGYGRVSEKDAPKELLQMLEK | binds
M11.1.2 (designed binder, Isolated from a yeast surface display library built on the rcSso7d scaffold; In the vaccines it was fused at its C-terminus to GGGS-His tag-GGGS-E7 long) ATVKYTYRGEEKRVDISKIKWVNRWGQHLAFKYDKGGGAAGYGWVSEKDAPKELLQMLEKR | binds
